Assay results from patent US20210284734A1 (SYMPHOGEN A S, published 2021).
Each block holds one binder with its values, some of them ahead of it.

Columns and labels:
[1] = target: T1, human PD-1 Fc fusion protein (Sino Biological) (human, UniProt Q15116 25-167, limits assumed); experiment: BLI, PD-1-Fc saturated with 10 ug/ml antibody, then PD-L1-Fc
T1 construct: bought; not shown: Fc of the commercial fusion protein

[2] = target: T1, human PD-1 Fc fusion protein (Sino …); experiment: BLI, PD-1-Fc saturated with 10 ug/ml antibody, then PD-L2-Fc
[3] = target: T2, human PD-1 expressed on CHO-S cells (human, UniProt Q15116 25-288); experiment: flow cytometry competition, 10 ug/ml antibody vs R-PE PD-L1-Fc on PD-1 CHO-S cells
T2 construct: also called PD-1-expressing cells

cyno PD1 = target: T3, cyno PD1 (limits assumed); experiment: flow cytometry, PD-1-transfected CHO-S cells; mAb 10 ug/ml, then R-PE PD-L1-Fc as blocked ligand
T3 construct: also called cynomolgus PD-1 expressed on CFSE-stained CHO-S cells
T3 receptor: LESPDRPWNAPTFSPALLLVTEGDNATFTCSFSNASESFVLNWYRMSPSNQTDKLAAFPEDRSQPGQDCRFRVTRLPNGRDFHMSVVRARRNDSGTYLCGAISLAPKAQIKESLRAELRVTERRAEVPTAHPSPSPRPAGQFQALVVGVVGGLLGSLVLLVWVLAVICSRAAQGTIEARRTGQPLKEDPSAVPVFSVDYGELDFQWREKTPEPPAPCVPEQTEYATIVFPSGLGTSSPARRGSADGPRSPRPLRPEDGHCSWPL

[4] = target: T2, human PD-1 expressed on CHO-S cells; experiment: as above
[5] = target: T4, His-tagged human PD-1 ECD (human, UniProt Q15116 25-170); experiment: SPR, IgG captured, monovalent PD-1 ECD analyte
T4 construct: bought from Acro Biosystems; not shown: His tag

[6] = target: T5, His-tagged cynomolgus PD-1 ECD (cynomolgus (Macaca fascicularis), UniProt Q15116 25-170 (human entry)); experiment: SPR, IgG captured, monovalent PD-1 ECD analyte
T5 construct: bought from Acro Biosystems; not shown: His tag
T5 chain: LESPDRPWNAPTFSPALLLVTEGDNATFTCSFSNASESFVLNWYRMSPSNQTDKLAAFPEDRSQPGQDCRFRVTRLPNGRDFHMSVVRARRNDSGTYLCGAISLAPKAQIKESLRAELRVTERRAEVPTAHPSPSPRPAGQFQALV
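Throughout, for % of all cells in Q3 of panel PD-L1 binding (PD-L1-, CFSE+ cyno PD1 cells): human PD-1 CHO-S cells mixed with CFSE-labelled cyno PD-1 CHO-S cells, antibody binding read with APC anti-human IgG light chain detection.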
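Throughout, for % of cyno PD1-gated cells in Q1 (mAb+, PD-L1-): human PD-1 CHO-S cells mixed with CFSE-labelled cyno PD-1 CHO-S cells, antibody binding read with APC anti-human IgG light chain detection.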
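Throughout, for % of cyno PD1-gated cells in Q2 (mAb+, PD-L1+): human PD-1 CHO-S cells mixed with CFSE-labelled cyno PD-1 CHO-S cells, antibody binding read with APC anti-human IgG light chain detection.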
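Throughout, for % of cyno PD1-gated cells in Q3 (mAb-, PD-L1+): human PD-1 CHO-S cells mixed with CFSE-labelled cyno PD-1 CHO-S cells, antibody binding read with APC anti-human IgG light chain detection.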

T2 sequence (Q15116 25-288 limits assumed): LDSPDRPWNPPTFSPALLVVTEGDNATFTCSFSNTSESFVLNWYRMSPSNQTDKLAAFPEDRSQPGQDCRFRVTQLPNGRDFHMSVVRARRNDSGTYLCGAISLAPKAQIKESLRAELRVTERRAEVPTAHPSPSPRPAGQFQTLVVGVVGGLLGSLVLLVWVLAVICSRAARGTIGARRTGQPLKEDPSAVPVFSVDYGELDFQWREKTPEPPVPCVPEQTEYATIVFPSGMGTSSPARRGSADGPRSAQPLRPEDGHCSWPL
T4 sequence (Q15116 25-170): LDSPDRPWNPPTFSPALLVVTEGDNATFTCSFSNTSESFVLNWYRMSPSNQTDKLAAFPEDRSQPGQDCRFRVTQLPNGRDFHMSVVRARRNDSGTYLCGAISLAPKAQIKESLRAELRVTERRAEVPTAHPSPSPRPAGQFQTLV
T1 sequence (Q15116 25-167 limits assumed): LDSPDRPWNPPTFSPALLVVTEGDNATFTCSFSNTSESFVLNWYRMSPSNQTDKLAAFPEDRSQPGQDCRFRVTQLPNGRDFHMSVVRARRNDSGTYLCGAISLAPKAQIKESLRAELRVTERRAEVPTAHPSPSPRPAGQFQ

B1: 12819.13367 (antibody, human IgG1, lambda, L234A L235A)
heavy: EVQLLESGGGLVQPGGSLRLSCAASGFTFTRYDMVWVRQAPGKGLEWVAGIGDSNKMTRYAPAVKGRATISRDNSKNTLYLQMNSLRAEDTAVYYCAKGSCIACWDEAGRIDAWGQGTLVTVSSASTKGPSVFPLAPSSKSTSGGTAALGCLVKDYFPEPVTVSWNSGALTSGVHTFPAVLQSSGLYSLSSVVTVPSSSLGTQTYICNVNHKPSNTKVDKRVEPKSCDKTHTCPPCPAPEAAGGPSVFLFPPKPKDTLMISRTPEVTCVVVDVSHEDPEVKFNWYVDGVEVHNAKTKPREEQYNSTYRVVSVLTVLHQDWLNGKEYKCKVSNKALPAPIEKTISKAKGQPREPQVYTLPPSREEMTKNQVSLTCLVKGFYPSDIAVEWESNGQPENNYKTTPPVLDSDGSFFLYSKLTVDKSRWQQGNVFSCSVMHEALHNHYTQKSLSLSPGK
light: ELTQDPAVSVALGQTVRITCSGGGSYDGSSYYGWYQQKPGQAPVTVIYNNNNRPSDIPDRFSGSSSGNTASLTITGAQAEDEADYYCGSYDRPETNSDYVGMFGSGTKVTVLGQPKANPTVTLFPPSSEELQANKATLVCLISDFYPGAVTVAWKADGSPVKAGVETTKPSKQSNNKYAASSYLSLTPEQWKSHRSYSCQVTHEGSTVEKTVAPTECS
- % Blocking [1]: 94%
- % Blocking [2]: 94%
- % PD-L1 binding inhibition [3]: 87%
- % of all cells in Q3 of panel PD-L1 binding (PD-L1-, CFSE+ cyno PD1 cells) (cyno PD1): 51.1%
- % of cyno PD1-gated cells in Q1 (mAb+, PD-L1-) (cyno PD1): 47.8%
- % of cyno PD1-gated cells in Q2 (mAb+, PD-L1+) (cyno PD1): 3.87%
- % of cyno PD1-gated cells in Q3 (mAb-, PD-L1+) (cyno PD1): 0.99%
- % of cyno PD1-gated cells in Q4 (mAb-, PD-L1-) (cyno PD1): 47.3%
- % of all cells in Q1 of panel PD-L1 binding (PD-L1+, CFSE- human PD1 cells) [4]: 0.73%
- % of all cells in Q4 of panel PD-L1 binding (PD-L1-, CFSE- human PD1 cells) [4]: 47.6%
- % of human PD1-gated cells in Q1 (mAb+, PD-L1-) [4]: 58.8%
- % of human PD1-gated cells in Q2 (mAb+, PD-L1+) [4]: 5.85%
- % of human PD1-gated cells in Q3 (mAb-, PD-L1+) [4]: 0.37%
- % of human PD1-gated cells in Q4 (mAb-, PD-L1-) [4]: 35%

B2: 12892.15378 (antibody, human IgG1, lambda, L234A L235A)
heavy: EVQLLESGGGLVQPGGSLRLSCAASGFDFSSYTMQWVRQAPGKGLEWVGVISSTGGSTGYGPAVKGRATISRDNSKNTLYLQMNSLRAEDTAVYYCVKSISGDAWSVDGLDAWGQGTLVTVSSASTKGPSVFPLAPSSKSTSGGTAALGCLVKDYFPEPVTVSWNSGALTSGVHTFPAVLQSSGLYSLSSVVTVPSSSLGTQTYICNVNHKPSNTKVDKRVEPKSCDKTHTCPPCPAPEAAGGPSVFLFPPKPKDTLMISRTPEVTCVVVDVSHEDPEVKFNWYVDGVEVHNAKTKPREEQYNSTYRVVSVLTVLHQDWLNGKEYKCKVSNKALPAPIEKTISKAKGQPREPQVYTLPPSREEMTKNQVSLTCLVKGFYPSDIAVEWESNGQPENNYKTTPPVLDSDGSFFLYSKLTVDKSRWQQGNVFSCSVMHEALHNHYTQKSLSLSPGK
light: SYELTQDPAVSVALGQTVRITCSGGGSAYGWYQQKPGQAPVTVIYYNNQRPSGIPDRFSGSSSGNTASLTITGAQAEDEADYYCGSYDSSAVGIFGSGTKVTVLGQPKANPTVTLFPPSSEELQANKATLVCLISDFYPGAVTVAWKADGSPVKAGVETTKPSKQSNNKYAASSYLSLTPEQWKSHRSYSCQVTHEGSTVEKTVAPTECS
notes: humanized, IgG1 LALA, lambda
- Kd [5]: 0.737 nM
- koff [5]: 0.00034 s⁻¹
- kon [5]: 460000 M⁻¹ s⁻¹
- Kd [6]: 2.34 nM
- koff [6]: 0.00069 s⁻¹
- kon [6]: 290000 M⁻¹ s⁻¹

B4: 12748.15381 (antibody, human IgG1, lambda, L234A L235A, V domains shown)
VH: EVQLLESGGGLVQPGGSLRLSCAASGFTFSDYAMNWVRQAPGKGLEWVAGIGNDGSYTNYGAAVKGRATISRDNSKNTLYLQMNSLRAEDTAVYYCASDIRSRNDCSYFLGGCSSGFIDVWGQGTLVTVSS
VL: SYELTQDPAVSVALGQTVRITCSGGSSYSYGWFQQKPGQAPVTVIYESNNRPSDIPDRFSGSSSGNTASLTITGAQAEDEADYYCGNADSSSGIFGSGTKVTVLG
notes: humanized, IgG1 LALA, lambda
- Kd [5]: 0.054 nM
- koff [5]: 0.00017 s⁻¹
- kon [5]: 3.2e+06 M⁻¹ s⁻¹
- Kd [6]: 0.101 nM
- koff [6]: 0.00047 s⁻¹
- kon [6]: 4.6e+06 M⁻¹ s⁻¹

B5: 12748.16124 (antibody, human IgG1, lambda, L234A L235A, V domains shown)
VH: B4 VH
VL: SYELTQPPSVSVSPGQTARITCSGGSSYSYGWFQQKPGQAPVTVIYESNNRPSDIPERFSGSSSGTTVTLTISGVQAEDEADYYCGNADSSSGIFGSGTKVTVLG
notes: alternative germline VL variant of 12748.15381; IgG1 LALA, lambda
- Kd [5]: 0.047 nM
- koff [5]: 0.00016 s⁻¹
- kon [5]: 3.4e+06 M⁻¹ s⁻¹
- Kd [6]: 0.081 nM
- koff [6]: 0.00039 s⁻¹
- kon [6]: 4.8e+06 M⁻¹ s⁻¹

Continued by falling Kd [5], values first:

- Kd [5]: 0.542 nM
- koff [5]: 0.00038 s⁻¹
- kon [5]: 710000 M⁻¹ s⁻¹
- Kd [6]: 2.22 nM
- koff [6]: 0.0007 s⁻¹
- kon [6]: 320000 M⁻¹ s⁻¹
B3: 12796.15376 (antibody, human IgG1, lambda, L234A L235A, V domains shown)
VH: EVQLLESGGGLVQPGGSLRLSCAASGFDFSSYTMQWVRQAPGKGLEWVGVISSTGGSTGYGPAVKGRATISRDNSKNTLYLQMNSLRAEDTAVYYCVKSVSGDAWSVDGLDAWGQGTLVTVSS
VL: SYELTQDPAVSVALGQTVRITCSGGGSAYGWYQQKPGQAPVTVIYYNNQRPSDIPDRFSGSSSGNTASLTITGAQAEDEADYYCGSYDSSAVGIFGSGTKVTVLG
notes: humanized, IgG1 LALA, lambda

- Kd [5]: 0.112 nM
- koff [5]: 0.00014 s⁻¹
- kon [5]: 1.2e+06 M⁻¹ s⁻¹
- Kd [6]: 6.94 nM
- koff [6]: 0.0072 s⁻¹
- kon [6]: 1e+06 M⁻¹ s⁻¹
B6: 12760.15375 (antibody, human IgG1, lambda, L234A L235A, V domains shown)
VH: EVQLLESGGGLVQPGGSLRLSCAASGFTFSTFNMVWVRQAPGKGLEYVAEISSDGSFTWYATAVKGRATISRDNSKNTVYLQMNSLRAEDTAVYYCAKSDCSSSYYGYSCIGIIDAWGQGTLVTVSS
VL: SYELTQDPAVSVALGQTVRITCSGGISDDGSYYYGWFQQKPGQAPVTVIYINDRRPSNIPDRFSGSSSGNTASLTITGAQAEDEADYYCGSYDSSAGVGIFGSGTKVTVLG
notes: humanized, IgG1 LALA, lambda
